# From patent US20150353638A1 (INSTITUTE OF BASIC MEDICAL SCIENCES CHINESE ACADEMY OF …, published 2015)
# Target: T1, antigen DR5 (human death receptor 5), immobilised on the CM5 chip (human, UniProt O14763 56-182, limits assumed)
# T1 construct: The title says the antibodies are against the extracellular domain, but the construct used is not described; also called TRAIL receptor 2; TRAIL-R2
# Assay: SPR (Biacore X100), DR5 immobilised on CM5 chip, antibody injected as analyte
Binder,Kd [nM],koff [s⁻¹],kon [M⁻¹ s⁻¹]
"humanized anti-human DR5 monoclonal antibody AD15 (antibody, human IgG1, kappa, Humanized from murine AD5-10 by CDR grafting; human IgG1 heavy chain constant region and kappa light chain) heavy: not shown light: DVVMTQSPLSLPVTPGEPASISCRSSQSLVHSNGNTYLHWYLQKPGQSPQLLIYKVSNRFSGVPDRFSGSGSGTDFTLKISRVEAEDVGVYFCFQSTHVPHTFGQGTKLEIKRTVAAPSVFIFPPSDEQLKSGTASVVCLLNNFYPREAKVQWKVDNALQSGNSQESVTEQDSKDSTYSLSSTLTLSKADYEKHKVYACEVTHQGLSSPVTKSFNRGEC",2.95,0.0097,3.28e+06
"humanized anti-human DR5 monoclonal antibody AD10 (antibody, human IgG1, kappa, V domains shown, Humanized from murine AD5-10 by CDR grafting; human IgG1 heavy chain constant region and kappa light chain) VH: EIQLVQSGPELKKPGASVKVSCKASGYTFTDFSMNWVRQAPGQGLKWMGWINTETGEPTYADDFKGRFALSMDTSVSTAYLQISSLKAEDTAVYFCVRIDYWGQGTTVTVSS VL: DIVMTQSPLSLPVTPGEPASISCRSSQSLVHSNGNTYLHWYLQKPGQSPQLLIYKVSNRFSGVPDRFSGSGSGTDFTLKISRVEAEDVGVYYCFQSTHVPHTFGQGTKLEIKR",3.51,0.0198,5.64e+06
"humanized anti-human DR5 monoclonal antibody AD14 (antibody, human IgG1, kappa, Humanized from murine AD5-10 by CDR grafting; human IgG1 heavy chain constant region and kappa light chain) heavy: not shown light: DVVMTQSPLSLPVTPGEPASISCRSSQSLVHSNGNTYLHWYLQKPGQSPQLLIYKVSNRFSGVPDRFSGSGSGTDFTLKISRVEAEDVGVYFCFQSTHVPHTFGQGTKLEIKRTVAAPSVFIFPPSDEQLKSGTASVVCLLNNFYPREAKVQWKVDNALQSGNSQESVTEQDSKDSTYSLSSTLTLSKADYEKHKVYACEVTHQGLSSPVTKSFNRGEC",1.65,0.014,8.44e+06
